B1: Protein ENL (Homo sapiens), Q03111 (parent)
chain: MDNQCTVQVRLELGHRAQLRKKPTTEGFTHDWMVFVRGPEQCDIQHFVEKVVFWLHDSFPKPRRVCKEPPYKVEESGYAGFIMPIEVHFKNKEEPRKVCFTYDLFLNLEGNPPVNHLRCEKLTFNNPTTEFRYKLLRAGGVMVMPEGADTVSRPSPDYPMLPTIPLSAFSDPKKTKPSHGSKDANKESSKTSKPHKVTKEHRERPRKDSESKSSSKELEREQAKSSKDTSRKLGEGRLPKEEKAPPPKAAFKEPKMALKETKLESTSPKGGPPPPPPPPPRASSKRPATADSPKPSAKKQKKSSSKGSRSAPGTSPRTSSSSSFSDKKPAKDKSSTRGEKVKAESEPREAKKALEVEESNSEDEASFKSESAQSSPSNSSSSSDSSSDSDFEPSQNHSQGPLRSMVEDLQSEESDEDDSSSGEEAAGKTNPGRDSRLSFSDSESDNSADSSLPSREPPPPQKPPPPNSKVSGRRSPESCSKPEKILKKGTYDKAYTDELVELHRRLMALRERNVLQQIVNLIEETGHFNVTNTTFDFDLFSLDETTVRKLQSCLEAVAT
partner: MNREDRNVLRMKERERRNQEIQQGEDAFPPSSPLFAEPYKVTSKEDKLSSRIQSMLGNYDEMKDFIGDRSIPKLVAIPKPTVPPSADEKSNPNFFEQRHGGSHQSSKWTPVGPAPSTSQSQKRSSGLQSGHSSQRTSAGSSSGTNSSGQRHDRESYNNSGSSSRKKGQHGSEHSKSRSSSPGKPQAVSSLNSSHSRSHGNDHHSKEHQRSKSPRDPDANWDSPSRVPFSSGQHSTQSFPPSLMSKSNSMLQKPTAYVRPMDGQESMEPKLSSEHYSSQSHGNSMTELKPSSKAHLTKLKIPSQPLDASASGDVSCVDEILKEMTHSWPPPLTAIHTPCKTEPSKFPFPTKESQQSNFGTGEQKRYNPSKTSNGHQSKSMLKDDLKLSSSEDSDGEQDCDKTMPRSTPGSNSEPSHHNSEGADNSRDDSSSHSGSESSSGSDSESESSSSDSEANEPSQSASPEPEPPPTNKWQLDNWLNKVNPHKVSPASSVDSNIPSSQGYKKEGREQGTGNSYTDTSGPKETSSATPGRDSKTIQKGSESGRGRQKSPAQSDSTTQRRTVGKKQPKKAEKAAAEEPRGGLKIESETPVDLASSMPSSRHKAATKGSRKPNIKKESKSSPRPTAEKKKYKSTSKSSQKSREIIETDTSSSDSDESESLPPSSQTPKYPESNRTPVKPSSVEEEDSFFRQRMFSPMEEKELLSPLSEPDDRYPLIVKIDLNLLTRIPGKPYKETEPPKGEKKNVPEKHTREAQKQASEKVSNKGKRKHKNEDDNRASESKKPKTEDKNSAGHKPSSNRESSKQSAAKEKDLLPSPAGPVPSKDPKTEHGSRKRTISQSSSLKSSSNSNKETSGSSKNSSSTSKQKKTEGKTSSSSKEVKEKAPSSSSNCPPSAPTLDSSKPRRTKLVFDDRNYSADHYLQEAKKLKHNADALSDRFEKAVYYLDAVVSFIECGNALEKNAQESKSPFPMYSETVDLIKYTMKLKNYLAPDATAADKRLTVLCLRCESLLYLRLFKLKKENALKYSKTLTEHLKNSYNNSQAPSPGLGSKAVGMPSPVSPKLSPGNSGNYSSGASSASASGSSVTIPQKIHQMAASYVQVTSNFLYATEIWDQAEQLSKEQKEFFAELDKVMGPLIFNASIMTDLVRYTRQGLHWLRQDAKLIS
B2: Protein AF-9 (Homo sapiens), P42568 (parent)
chain: MASSCAVQVKLELGHRAQVRKKPTVEGFTHDWMVFVRGPEHSNIQHFVEKVVFHLHESFPRPKRVCKDPPYKVEESGYAGFILPIEVYFKNKEEPRKVRFDYDLFLHLEGHPPVNHLRCEKLTFNNPTEDFRRKLLKAGGDPNRSIHTSSSSSSSSSSSSSSSSSSSSSSSSSSSSSSSSSSSSSSSSSSTSFSKPHKLMKEHKEKPSKDSREHKSAFKEPSRDHNKSSKESSKKPKENKPLKEEKIVPKMAFKEPKPMSKEPKPDSNLLTITSGQDKKAPSKRPPISDSEELSAKKRKKSSSEALFKSFSSAPPLILTCSADKKQIKDKSHVKMGKVKIESETSEKKKSTLPPFDDIVDPNDSDVEENISSKSDSEQPSPASSSSSSSSSFTPSQTRQQGPLRSIMKDLHSDDNEEESDEVEDNDNDSEMERPVNRGGSRSRRVSLSDGSDSESSSASSPLHHEPPPPLLKTNNNQILEVKSPIKQSKSDKQIKNGECDKAYLDELVELHRRLMTLRERHILQQIVNLIEETGHFHITNTTFDFDLCSLDKTTVRKLQSYLETSGTS
B3: Protein ENL (Homo sapiens), Q03111 (parent)
chain: B1 chain
B4: Protein AF-9 (Homo sapiens), P42568 (parent)
chain: B2 chain
partner: B1 partner

Variants of: B1
Conditions: with aff4_human AFF4, Q9UHB7
In the case of L550E, the “effect of a mutation on the interaction” value is reported as “disrupting interaction”.

Variants of: B2
Conditions: with dot1l_human DOT1L
L558E was tested, and the “effect of a mutation on the interaction” value was “decreasing interaction”.

Variants of: B3
Conditions: with dot1l_human DOT1L
L550E was tested, and the “effect of a mutation on the interaction” value was “decreasing interaction”.

Variants of: B4
Conditions: with aff4_human AFF4, Q9UHB7
For L558E, the “effect of a mutation on the interaction” value was “decreasing interaction”.
